As a reminder, the Kd is the free concentration of one partner at which half of the binding sites on the other are occupied at equilibrium, for simple one-to-one binding. Read a high Kd as a looser complex.

The target of data set [1] is T1, Sen1-HD (UniProt Q00416 1095-1904).
T1 sequence: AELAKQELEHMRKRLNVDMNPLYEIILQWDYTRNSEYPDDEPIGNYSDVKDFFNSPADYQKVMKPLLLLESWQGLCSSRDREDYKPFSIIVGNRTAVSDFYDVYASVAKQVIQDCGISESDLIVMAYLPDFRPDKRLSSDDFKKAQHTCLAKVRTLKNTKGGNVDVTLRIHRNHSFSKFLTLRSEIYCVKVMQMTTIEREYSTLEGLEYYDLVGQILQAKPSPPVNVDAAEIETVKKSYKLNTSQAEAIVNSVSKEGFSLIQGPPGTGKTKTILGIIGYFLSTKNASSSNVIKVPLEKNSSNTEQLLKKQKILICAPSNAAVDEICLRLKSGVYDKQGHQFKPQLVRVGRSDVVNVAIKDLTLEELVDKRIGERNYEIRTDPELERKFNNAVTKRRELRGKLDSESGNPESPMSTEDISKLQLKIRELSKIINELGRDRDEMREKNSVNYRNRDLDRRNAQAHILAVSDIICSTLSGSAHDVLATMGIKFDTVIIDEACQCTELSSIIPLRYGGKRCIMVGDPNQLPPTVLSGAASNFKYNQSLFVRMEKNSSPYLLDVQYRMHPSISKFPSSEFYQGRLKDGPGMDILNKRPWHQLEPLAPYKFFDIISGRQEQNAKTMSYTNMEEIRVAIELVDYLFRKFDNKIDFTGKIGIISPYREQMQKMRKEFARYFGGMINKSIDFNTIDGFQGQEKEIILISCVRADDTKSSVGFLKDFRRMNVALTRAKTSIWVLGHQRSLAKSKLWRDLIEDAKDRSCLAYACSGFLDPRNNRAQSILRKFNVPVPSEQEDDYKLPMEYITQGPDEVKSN
As to the kind of experiment: BLI.

In data set [2] the target is T2, SETX-HD-WT (Homo sapiens, UniProt Q7Z333 1674-2677).
T2 sequence: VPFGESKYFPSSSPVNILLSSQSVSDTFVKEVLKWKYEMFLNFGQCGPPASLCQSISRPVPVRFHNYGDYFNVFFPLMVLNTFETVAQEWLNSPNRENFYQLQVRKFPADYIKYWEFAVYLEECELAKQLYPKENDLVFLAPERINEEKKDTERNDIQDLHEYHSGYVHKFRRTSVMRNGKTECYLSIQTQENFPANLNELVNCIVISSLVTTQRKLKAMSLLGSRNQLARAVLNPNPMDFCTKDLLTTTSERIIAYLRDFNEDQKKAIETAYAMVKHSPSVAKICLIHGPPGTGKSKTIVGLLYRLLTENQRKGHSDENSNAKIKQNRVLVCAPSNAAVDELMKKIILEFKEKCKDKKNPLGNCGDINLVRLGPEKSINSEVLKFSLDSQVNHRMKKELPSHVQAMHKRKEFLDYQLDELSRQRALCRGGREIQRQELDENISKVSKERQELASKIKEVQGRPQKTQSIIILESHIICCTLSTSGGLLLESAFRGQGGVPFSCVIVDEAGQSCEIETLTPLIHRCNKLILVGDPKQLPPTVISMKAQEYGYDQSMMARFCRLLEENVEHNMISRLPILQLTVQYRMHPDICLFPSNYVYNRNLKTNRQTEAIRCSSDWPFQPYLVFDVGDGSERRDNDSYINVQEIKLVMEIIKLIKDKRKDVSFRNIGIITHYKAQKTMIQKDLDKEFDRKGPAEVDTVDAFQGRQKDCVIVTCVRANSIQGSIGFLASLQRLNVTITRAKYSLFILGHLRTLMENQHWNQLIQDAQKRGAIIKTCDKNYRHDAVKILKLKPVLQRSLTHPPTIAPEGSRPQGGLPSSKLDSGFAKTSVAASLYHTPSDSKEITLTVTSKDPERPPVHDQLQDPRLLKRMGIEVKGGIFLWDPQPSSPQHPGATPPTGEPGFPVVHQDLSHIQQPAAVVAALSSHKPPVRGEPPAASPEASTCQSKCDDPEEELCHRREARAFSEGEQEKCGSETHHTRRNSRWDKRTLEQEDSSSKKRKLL
As to the kind of experiment: BLI.

The target in data set [3] is T2, SETX-HD-WT. Put plainly: BLI. The source holds these as a separate data set. For orientation: In BLI a coated tip is dipped into the sample, and binding shifts an interference pattern.
The target of a further data set is T3, SETX-HD-V1884T (Homo sapiens, UniProt Q7Z333 1674-2677, V1884T).
T3 sequence: T2 sequence with V211T
Put plainly: BLI.

The target of data set [4] is T1, Sen1-HD. Put plainly: BLI. This is another data set of the same source.
In data set [5] the target is T2, SETX-HD-WT. As to the kind of experiment: EMSA. Background: A gel shift assay detects complexes by their altered migration in electrophoresis.
Data set [6] deals with T2, SETX-HD-WT. As to the kind of experiment: EMSA. This is another data set of the same source.
In data set [7] the target is T2, SETX-HD-WT. As to the kind of experiment: EMSA. This is another data set of the same source.
In data set [8] the target is T2, SETX-HD-WT. Put plainly: EMSA. This is another data set of the same source.

Numbering of substitutions follows the chain as printed. Read-outs that look alike come from different tables or passages of the source.

B1: ssDNA pRMS739 (41 nt) (ssDNA)
DNA: TTGTCTTCTCATAAATTTAATCCCCGTACGCTTATACTCCT
As for B1, the dissociation constant (Kd) with Sen1-HD [1] was 3.4 nM; with SETX-HD-WT [2], 2.8 nM.

B2: ssRNA pRMS740 (41 nt) (ssRNA)
RNA: UUGUCUUCUCAUAAAUUUAAUCCCCGUACGCUUAUACUCCU
Take B2: the dissociation constant Kd was 4.6 nM in the data set with SETX-HD-WT [3] and 3.7 nM with Sen1-HD [4]. Moreover, in the data set with SETX-HD-V1884T, the binding result is recorded as “binds”.

B3: 5'-oh RNA:DNA hybrid (pRMS678/pRMS690) (DNA:RNA)
RNA: UUGUCUUCUCAUAAAUUUAAUCCCCGUACGCUUAUACUCCUUUAACUACCCAGUCUUCCCG
DNA: CGGGAAGACTGGGTAGTTAA
Regarding B3, in the data set with SETX-HD-WT [5], the binding result is “binds”.

B4: 3'-oh RNA:DNA hybrid (pRMS678/pRMS689) (DNA:RNA)
RNA: B3 RNA
DNA: TTAAATTTATGAGAAGACAA
In the case of B4, the binding result in the data set with SETX-HD-WT [6] is listed as “binds”.

B5: blunt RNA:DNA hybrid (pRMS678/pRMS743) (DNA:RNA)
RNA: B3 RNA
DNA: CGGGAAGACTGGGTAGTTAAAGGAGTATAAGCGTACGGGGATTAAATTTATGAGAAGACAA
Consider B5, for which, in the data set with SETX-HD-WT [7], the binding result is given as “no binding”.

B6: 5'-oh R-loop (pRMS217/219/222) (mixed)
DNA 1: GACGCTGCCGAATTCTACCAGTGCCTTGCTAGGACATCTTTGCCCACCTGCAGGTTCACCC
DNA 2: GGGTGAACCTGCAGGTGGGCGGCTGCTCATCGTAGGTTAGTTGGTAGAATTCGGCAGCGTC
RNA: UAAGAGCAAGAUGUUCUAUAAAAGAUGUCCUAGCAAGGCAC
B6: the binding result in the data set with SETX-HD-WT [8] is given as “binds”.

B7: 3'-oh R-loop (pRMS217/219/626) (mixed)
DNA 1: B6 DNA 1
DNA 2: B6 DNA 2
RNA: AAAGAUGUCCUAGCAAGGCACUAAGUCCUAGAUGUUCUAUA
On to B7, for which the binding result in the data set with SETX-HD-WT [8] is listed as “binds”.

B8: R-loop, no overhang (pRMS217/219/223) (mixed)
DNA 1: B6 DNA 1
DNA 2: B6 DNA 2
RNA: AAAGAUGUCCUAGCAAGGCAC
With B8, the binding result with SETX-HD-WT [8] is “binds”.

These data come from publication PMC10085699.
